In patent EP3061768A1 (dated 2016):

Key:
neutravidin = molecular target: T1, neutravidin (UniProt P02701 25-152); experiment: phage ELISA, crude phage extract, anti-M13-HRP
T1 construct: Control wells without biotinylated IL-1 Beta

human IL-1 Beta (human) [1] = molecular target: human IL-1 Beta (human) (UniProt P01584); experiment: ELISA based competition assay; competitor: antagonistic reference mouse mAb (Diaclone)
human IL-1 Beta (human) [2] = molecular target: human IL-1 Beta (human) (UniProt P01584); experiment: cell-based or functional assay
human IL-1 Beta (human) [3] = molecular target: human IL-1 Beta (human) (UniProt P01584); experiment: competition ELISA, periplasmic extract; competitor: coated mouse mAb (Diaclone); reduced signal means competition

human IL-1 Beta (human), sequence (P01584 117-269 limits assumed): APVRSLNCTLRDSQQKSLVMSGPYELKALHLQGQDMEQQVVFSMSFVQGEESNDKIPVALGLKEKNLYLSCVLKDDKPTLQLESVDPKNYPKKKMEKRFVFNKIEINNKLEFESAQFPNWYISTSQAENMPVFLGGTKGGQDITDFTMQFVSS
T1 sequence (P02701 25-152): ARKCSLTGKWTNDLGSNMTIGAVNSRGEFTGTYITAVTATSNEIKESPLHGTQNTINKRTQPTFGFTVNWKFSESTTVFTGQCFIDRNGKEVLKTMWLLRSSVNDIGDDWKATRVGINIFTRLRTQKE

B1: wt 1E2 gene3-Fab fusion on phage (Fab, V domains shown)
VH: EVQLVESGGGLVQPGGSLRLSCTASGFTFSNYWMYWVRQAPGKGLEWVSAINAAGSTYYADSVKGRFTISRDNAKNTLYLQMNSLQSEDTALYYCANLPRWGQGTQVTVSS
VL: QTVVTQEPSLSVSPGGTVTLTCGLSSGSVTSGNYPGWYQQKPGQAPRTLIYNTNSRYSGVPNRFSGSISGNKAALTITGAQPEDEADYYCAVYIGSSSYPVVFGGGTHLTVLG
notes: crude phage extract; also called wt 1E2 (phage)
- binding result (neutravidin): no binding

B2: hum 1E2 gene3-Fab fusion on phage (Fab, V domains shown)
VH: EVQLVESGGGLVQPGGSLRLSCAASGFTFSNYWMYWVRQAPGKGLEWVSAINAAGSTYYADSVKGRFTISRDNSKNTLYLQMNSLRAEDTAVYYCANLPRWGQGTLVTVSS
VL: QTVVTQEPSFSVSPGGTVTLTCGLSSGSVTSGNYPGWYQQTPGQAPRTLIYNTNSRSSGVPDRFSGSILGNKAALTITGAQADDESDYYCAVYIGSSSYPVVFGGGTKLTVLG
notes: also called fully humanized 1E2
- binding result (neutravidin): no binding

B3: safe variant 1E2 gene3-Fab fusion on phage (Fab, V domains shown)
VH: EVQLVESGGGLVQPGGSLRLSCAASGFTFSNYWMYWVRQAPGKGLEWVSAINAAGSTYYADSVKGRFTISRDNSKNTLYLQMNSLQSEDTAVYYCANLPRWGQGTQVTVSS
VL: QTVVTQEPSFSVSPGGTVTLTCGLSSGSVTSGNYPGWYQQKPGQAPRTLIYNTNSRSSGVPDRFSGSILGNKAALTITGAQPDDESDYYCAVYIGSSSYPVVFGGGTHLTVLG
notes: The text says 'partially humanized V lambda fused to human C lambda and CH1'; also called safe 1E2
- binding result (neutravidin): no binding

B4: Fab 1A1 (Fab, part only; not given: lambda light chain, V domains shown, not shown: a dimerising Fc or GST)
VH: EVQLVESGGGLVQPGGSLRLSCAASGFTFDDYAMSWVRQAPGKGLEWVSTISWNGGATYYAESMKGRFTISRDNAKNTLYLQMNSLKSEDTAVYYCAKPYYSDYVGVEYDYWGQGTQVTVSS
- IC50 (human IL-1 Beta (human) [1]): 12 µg/mL
- IC50 in the bioassay (human IL-1 Beta (human) [2]): 10 µg/mL
- OD signal in the competition assay (human IL-1 Beta (human) [3]): 0.205 OD

B5: Fab 1C3 (Fab, part only; not given: lambda light chain, V domains shown, not shown: a dimerising Fc or GST)
VH: EVQLVESGGGLVQPGGSLRLSCAASGFTFSSYWMYWVRQAPGKGLEWVSAINTGGGRTYYADSVKGRFTISRDNAKNTLYLQMNSLKSEDTAVYYCAKGTSADGSSWYVPADPYDYWGQGTQVTVSS
- concentration at which competition is seen (human IL-1 Beta (human) [1]): > 50 µg/mL
- IC50 in the bioassay (human IL-1 Beta (human) [2]): 3 µg/mL
- OD signal in the competition assay (human IL-1 Beta (human) [3]): 0.386 OD

B6: Fab 1B3 (Fab, part only; not given: lambda light chain, V domains shown, not shown: a dimerising Fc or GST)
VH: EVQLVQSGAELRNPGASVKVSCKASGYTFTSYYIDWVRQAPGQGLEWMGRIDPEDGGTKYAQKFQGRVTFTADTSTSTAYVELSSLRSEDTAVYYCARSGRYELDYWGQGTQVTVSS
- OD signal in the competition assay (human IL-1 Beta (human) [3]): 0.444 OD

B7: Fab 1G1 (Fab, part only; not given: light chain, V domains shown, part only)
VH: EVQLVQSGAELRNPGASVKVSCKASGYTFTSYYTDWVRQAPGQGLEWMGRIDPEDGDTKYAQKFQGRVTFTADTSTSTAYVELTSLRSEDTAVYYCLRSGAYELDYWGQGTQVTVSS
- OD signal in the competition assay (human IL-1 Beta (human) [3]): 0.498 OD

B8: wt 1F2 gene3-Fab fusion on phage (Fab, V domains shown)
VH: EVQLVESGGGLVQPGGSLRLSCAASGFTFSTYAMSWVRQAPGKGPEWVSGINTGGGSTGYADSVKGRFTISRDNAKNTLYLQMNSLKPEDTAVYYCAKDWMATTPWGQGTQVTVSS
VL: QAVVTQEPSLSVSPGGTVTLTCGLSSGSVTTNNYPGWFQQTPGQAPRTLIYNTNNRHSGVPSRFSGSISGNKAALTITGAQPEDEADYYCALYMSSGSNNAVFGGGTHLTVLG
- binding result (neutravidin): no binding

B9: safe variant 1F2 gene3-Fab fusion on phage (Fab, V domains shown)
VH: EVQLLESGGGLVQPGGSLRLSCAASGFTFSTYAMSWVRQAPGKGPEWVSGINTGGGSTGYADSVKGRFTISRDNSKNTLYLQMNSLRPEDTAVYYCAKDWMATTPWGQGTQVTVSS
VL: QTVVTQEPSFSVSPGGTVTLTCGLSSGSVTTNNYPGWFQQTPGQAPRTLIYNTNNRHSGVPSRFSGSILGNKAALTITGAQADDESDYYCALYMSSGSNNAVFGGGTKLTVLG
notes: The text says 'partially humanized V lambda fused to human C lambda and CH1'; the result sentence speaks of back mutations in both VL and VH, so the safe VH is used; also called safe 1F2; partially humanized 1F2
- binding result (neutravidin): no binding

B10: hum 1F2 gene3-Fab fusion on phage (Fab, V domains shown)
VH: EVQLLESGGGLVQPGGSLRLSCAASGFTFSTYAMSWVRQAPGKGLEWVSGINTGGGSTGYADSVKGRFTISRDNSKNTLYLQMNSLRAEDTAVYYCAKDWMATTPWGQGTLVTVSS
VL: QTVVTQEPSFSVSPGGTVTLTCGLSSGSVTTNNYPGWYQQTPGQAPRTLIYNTNNRSSGVPDRFSGSILGNKAALTITGAQADDESDYYCALYMSSGSNNAVFGGGTKLTVLG
notes: also called fully humanized 1F2
- binding result (neutravidin): no binding
